{"source": "paper PMC10454913", "about": "“Neurohypophysial and paracrine vasopressinergic signaling regulates aquaporin trafficking to hydrate marine teleost oocytes” (Frontiers in Endocrinology, 2023)", "key": {"[1]": {"test_system": "X. laevis oocytes expressing the seabream Oxtrb and Aqp1aa", "settings": "not told"}, "seabream Oxtrb": {"target": "seabream Oxtrb (Sparus aurata, UniProt R9WVY7)", "assay": "Activation of seabream Oxtrb in transfected HEK293T cells (pCRE-luc / pSRE-luc reporters, Fluo-4 AM Ca2+)", "format": "cell-based, gilthead seabream (Sparus aurata)"}}, "note": "Ends that are not written are not given here."}
{"substance": "CYISNCPIG-NH2 (ends and bridges not checked) [Oxt, synthetic teleost nonapeptide oxytocin (formerly isotocin)]", "values": [{"measurement": "oocyte permeability (P f) and channel accumulation in the plasma membrane", "setting": "[1]", "value": "reduction of oocyte permeability"}, {"measurement": "pCRE-mediated luciferase activity (cAMP)", "setting": "seabream Oxtrb; HEK293T cells expressing Oxtrb", "value": "did not induce measurable increases"}, {"measurement": "pSRE-induced luciferase activity (PKC activation)", "setting": "seabream Oxtrb; HEK293T cells expressing Oxtrb, 10^-12 to 10^-5 M", "value": "concentration-dependent increase"}, {"measurement": "intracellular Ca2+ concentration ([Ca2+]i)", "setting": "seabream Oxtrb; HEK293T cells expressing Oxtrb, Fluo-4 AM", "value": "concentration-dependent increase"}, {"measurement": "EC50", "setting": "seabream Oxtrb; Oxt on Oxtrb, HEK293T, read-out: approximate EC50 on cognate receptor", "value": "~10", "unit": "nM"}]}
